# Literature values as cited in publication PMC7710720.
# Molecular target: Neurotensin (Homo sapiens) (UniProt P30990)
substance,measurement,value
Neurotensin receptor 2 (from UniProt O95665),Kd,6 nM
